# In article PMC2141715:
# Target: calreticulin (canine pancreas microsomes) (dog (endogenous in canine pancreas microsomes)) (UniProt P28490)
# Assay: co-IP
substance,measurement,value
HA glycosylation mutant Δ483 (natural protein),reduction in binding against wild-type HA,40%
